# Test results: patent US20210369837A1, “METHODS OF TREATING TIM-3 ELEVATION” (ADVANTAGENE, INC., priority 2016, published 2021)
# Tested on: PD-L1
# Experiment: Flow cytometry of PD-L1 protein expression after interferon treatment
# Format: cell-based, mouse
# Details: CT2A and GL261 cells, day 4 post-treatment, IFN-β 1000 U/ml (FIGS. 5C-5F)
# Protocol: In another experiment, CT2A and GL261 cells were treated with IFN-β (1000 U/ml) (PBL Assay Science, Piscataway N.J.) and/or MAR-1-5A3 monoclonal antibody against IFNAR1 (BioXcel, West Lebanon, N.H.) ([…]). Cells were analyzed by flow cytometry for PD-L1 protein expression at day 4 post-treatment using either in the absence of specific antibody (isotype) or with PD-L1 specific antibody (BD Bioscience, San Jose, Calif.). Cells analyzed were either subjected to no treatment (untreated), or treated with INFα or INFβ.
# FIG. 5D and FIG. 5F show quantification of the percent of live cells analyzed by flow cytometry that express surface PD-L1 above baseline.
molecule,measurement,setting,value
"IFN-β: IFN-β (1000 U/ml) (PBL Assay Science) used to treat CT2A and GL261 cells (protein, UniProt P01575 22-182, looked up) Interferon beta: INYKQLQLQERTNIRKCQELLEQLNGKINLTYRADFKIPMEMTEKMQKSYTAFAIQEMLQNVFLVFRNNFSSTGWNETIVVRLLDELHQQTVFLKTVLEEKQEERLTWEMSSTALHLKSYYWRVQRYLKLMKYNSYAWMVVRAEIFRNFLIIRRLTRNFQN",Surface expression of PD-L1 protein,,increased surface expression of PD-L1 protein
same,Surface expression of PD-L1 protein,listed as INFβ,Increases in surface PD-L1 expression
